# Results from US20240117018A1.
# What was measured:
# Experiment in all cases: cell-based or functional assay
# [1] = molecular target: HIV-1 Env of pseudovirus 0815.v3.c3 (HIV-1)
# [2] = molecular target: HIV-1 Env of pseudovirus 191084 B7-19 (HIV-1)
# [3] = molecular target: HIV-1 Env of pseudovirus 191955_A11 (HIV-1)
# [4] = molecular target: HIV-1 Env of pseudovirus 211-9 (HIV-1)
# [5] = molecular target: HIV-1 Env of pseudovirus 231966.c02 (HIV-1)
# [6] = molecular target: HIV-1 Env of pseudovirus 235-47 (HIV-1)
# [7] = molecular target: HIV-1 Env of pseudovirus 263-8 (HIV-1)
# [8] = molecular target: HIV-1 Env of pseudovirus 3103.v3.c10 (HIV-1)
# [9] = molecular target: HIV-1 Env of pseudovirus 3301.v1.c24 (HIV-1)
# [10] = molecular target: HIV-1 Env of pseudovirus 3817.v2.c59 (HIV-1)
# [11] = molecular target: HIV-1 Env of pseudovirus 6041.v3.c23 (HIV-1)
# [12] = molecular target: HIV-1 Env of pseudovirus 6480.v4.c25 (HIV-1)
# [13] = molecular target: HIV-1 Env of pseudovirus 6540.v4.c1 (HIV-1)
# [14] = molecular target: HIV-1 Env of pseudovirus 6811.v7.c18 (HIV-1)
# [15] = molecular target: HIV-1 Env of pseudovirus 89-F1_2_25 (HIV-1)
# [16] = molecular target: HIV-1 Env of pseudovirus 928-28 (HIV-1)
# [17] = molecular target: HIV-1 Env of pseudovirus BJOX009000.02.4 (HIV-1)
# [18] = molecular target: HIV-1 Env of pseudovirus BJOX010000.06.2 (HIV-1)
# [19] = molecular target: HIV-1 Env of pseudovirus BJOX015000.11.5 (HIV-1)
# [20] = molecular target: HIV-1 Env of pseudovirus BJOX025000.01.1 (HIV-1)
# [21] = molecular target: HIV-1 Env of pseudovirus BJOX028000.10.3 (HIV-1)
# [22] = molecular target: HIV-1 Env of pseudovirus C1080.c03 (HIV-1)
# [23] = molecular target: HIV-1 Env of pseudovirus C3347.c11 (HIV-1)
# [24] = molecular target: HIV-1 Env of pseudovirus C4118.c09 (HIV-1)
# [25] = molecular target: HIV-1 Env of pseudovirus P0402_c2_11 (HIV-1)
# [26] = molecular target: HIV-1 Env of pseudovirus P1981_C5_3 (HIV-1)
# [27] = molecular target: HIV-1 Env of pseudovirus R1166.c01 (HIV-1)
# [28] = molecular target: HIV-1 Env of pseudovirus R2184.c04 (HIV-1)
# [29] = molecular target: HIV-1 Env of pseudovirus R3265.c06 (HIV-1)
# [30] = molecular target: HIV-1 Env of pseudovirus T251-18 (HIV-1)
# [31] = molecular target: HIV-1 Env of pseudovirus T255-34 (HIV-1)
# [32] = molecular target: HIV-1 Env of pseudovirus T257-31 (HIV-1)
# [33] = molecular target: HIV-1 Env of pseudovirus X1193_c1 (HIV-1)
# [34] = molecular target: HIV-1 Env of pseudovirus X1632_S2_B10 (HIV-1)
# [35] = molecular target: HIV-1 Env of pseudovirus X2088_c9 (HIV-1)
# [36] = molecular target: HIV-1 Env of pseudovirus X2131_C1_B5 (HIV-1)
substance,measurement,setting,value
PGT145 (antibody),IC50 (Titer in TZM.bl cells),[1],> 50 µg/mL
same,IC80 (Titer in TZM.bl cells),[1],> 50 µg/mL
same,neutralization IC50,[2],0.028 µg/mL
same,neutralization IC80,[2],0.345 µg/mL
same,neutralization IC50,[3],< 0.001 µg/mL
same,neutralization IC80,[3],< 0.001 µg/mL
same,IC50 (Titer in TZM.bl cells),[4],0.129 µg/mL
same,IC80 (Titer in TZM.bl cells),[4],0.923 µg/mL
same,IC50 (Titer in TZM.bl cells),[5],< 0.001 µg/mL
same,IC80 (Titer in TZM.bl cells),[5],0.01 µg/mL
same,IC50 (Titer in TZM.bl cells),[6],3.21 µg/mL
same,IC80 (Titer in TZM.bl cells),[6],36 µg/mL
same,neutralization IC50,[7],32.1 µg/mL
same,neutralization IC80,[7],> 50 µg/mL
same,IC50 (Titer in TZM.bl cells),[8],0.043 µg/mL
same,IC80 (Titer in TZM.bl cells),[8],0.164 µg/mL
same,IC50 (Titer in TZM.bl cells),[9],0.219 µg/mL
same,IC80 (Titer in TZM.bl cells),[9],4.22 µg/mL
same,IC50 (Titer in TZM.bl cells),[10],> 50 µg/mL
same,IC80 (Titer in TZM.bl cells),[10],> 50 µg/mL
same,IC50 (Titer in TZM.bl cells),[11],0.964 µg/mL
same,IC80 (Titer in TZM.bl cells),[11],> 50 µg/mL
same,IC50 (Titer in TZM.bl cells),[12],> 50 µg/mL
same,IC80 (Titer in TZM.bl cells),[12],> 50 µg/mL
same,IC50 (Titer in TZM.bl cells),[13],0.08 µg/mL
same,IC80 (Titer in TZM.bl cells),[13],5.09 µg/mL
same,IC50 (Titer in TZM.bl cells),[14],> 50 µg/mL
same,IC80 (Titer in TZM.bl cells),[14],> 50 µg/mL
same,IC50 (Titer in TZM.bl cells),[15],0.8 µg/mL
same,IC80 (Titer in TZM.bl cells),[15],20 µg/mL
same,neutralization IC50,[16],> 50 µg/mL
same,neutralization IC80,[16],> 50 µg/mL
same,IC50 (Titer in TZM.bl cells),[17],0.117 µg/mL
same,IC80 (Titer in TZM.bl cells),[17],0.745 µg/mL
same,IC50 (Titer in TZM.bl cells),[18],> 50 µg/mL
same,IC80 (Titer in TZM.bl cells),[18],> 50 µg/mL
same,IC50 (Titer in TZM.bl cells),[19],> 50 µg/mL
same,IC80 (Titer in TZM.bl cells),[19],> 50 µg/mL
same,IC50 (Titer in TZM.bl cells),[20],6.63 µg/mL
same,IC80 (Titer in TZM.bl cells),[20],> 50 µg/mL
same,IC50 (Titer in TZM.bl cells),[21],> 50 µg/mL
same,IC80 (Titer in TZM.bl cells),[21],> 50 µg/mL
same,IC50 (Titer in TZM.bl cells),[22],0.024 µg/mL
same,IC80 (Titer in TZM.bl cells),[22],0.146 µg/mL
same,IC50 (Titer in TZM.bl cells),[23],0.005 µg/mL
same,IC80 (Titer in TZM.bl cells),[23],0.044 µg/mL
same,IC50 (Titer in TZM.bl cells),[24],< 0.001 µg/mL
same,IC80 (Titer in TZM.bl cells),[24],0.004 µg/mL
same,IC50 (Titer in TZM.bl cells),[25],0.009 µg/mL
same,IC80 (Titer in TZM.bl cells),[25],0.038 µg/mL
same,IC50 (Titer in TZM.bl cells),[26],5.41 µg/mL
same,IC80 (Titer in TZM.bl cells),[26],> 50 µg/mL
same,IC50 (Titer in TZM.bl cells),[27],2.27 µg/mL
same,IC80 (Titer in TZM.bl cells),[27],17.9 µg/mL
same,IC50 (Titer in TZM.bl cells),[28],0.073 µg/mL
same,IC80 (Titer in TZM.bl cells),[28],0.376 µg/mL
same,IC50 (Titer in TZM.bl cells),[29],0.037 µg/mL
same,IC80 (Titer in TZM.bl cells),[29],0.227 µg/mL
same,IC50 (Titer in TZM.bl cells),[30],0.351 µg/mL
same,IC80 (Titer in TZM.bl cells),[30],1.39 µg/mL
same,IC50 (Titer in TZM.bl cells),[31],> 50 µg/mL
same,IC80 (Titer in TZM.bl cells),[31],> 50 µg/mL
same,neutralization IC50,[32],5.18 µg/mL
same,neutralization IC80,[32],> 50 µg/mL
same,IC50 (Titer in TZM.bl cells),[33],0.013 µg/mL
same,IC80 (Titer in TZM.bl cells),[33],0.091 µg/mL
same,IC50 (Titer in TZM.bl cells),[34],0.012 µg/mL
same,IC80 (Titer in TZM.bl cells),[34],2.03 µg/mL
same,IC50 (Titer in TZM.bl cells),[35],> 50 µg/mL
same,IC80 (Titer in TZM.bl cells),[35],> 50 µg/mL
same,IC50 (Titer in TZM.bl cells),[36],0.018 µg/mL
same,IC80 (Titer in TZM.bl cells),[36],0.065 µg/mL
